The target of experiment [1] is T1, HLA-E molecules expressed in PDX lung tumor tissue (Homo sapiens, UniProt P13747).
T1 construct: tissue Crown Biosciences PDX model LU5139; host or cells: patient-derived xenograft lung tumour tissue
Description: LC/MS/MS validation of peptides eluted from HLA-E of PDX lung tumor tissue. To be noted: PDX model LU5139, HLA-E affinity column 4D12. The procedure:
FIG. 6 exemplifies a validation strategy used for cancer specific HLA-E-peptide targets. 1) Snap-frozen tumor tissue isolated from patient-derived xenograft (PDX) models, patient biopsies or freshly isolated hematological cancer cells are stored frozen in liquid nitrogen. 2) Sample of material is isolated and resuspended in 5 to 10 ml of lysis buffer and homogenized for 10 seconds on ice. After lhr incubation on ice, the sample is centrifuged for 20 min at 40,000 g. 3) An affinity column is prepared using antibody 4D12 or another antibody to HLA-E. The purified anti-HLA-E antibodies are coupled to a CN-Br-activated sepharose beads. The clarified supernatant is then applied to the affinity column. The column is washed with PBS, followed by a second wash with water and the sample eluted with 0.1M glycine pH 3.0. 4) Collected sample is immediately neutralized with addition of NH4HCO3. […]
PDX lung tumor tissue was purchased from Crown Biosciences and used for extraction of HLA-E-peptide complexes. […] An aliquot of sample supernatant was removed and protein concentration was determined by BCA assay. […]
Peptide mixture samples underwent solid-phase extraction cleanup with an Oasis HLB elution plate (Waters) and the resulting samples were analyzed by LC/MS/MS, using an Orbitrap Fusion Lumos mass spectrometer (Thermo Electron) coupled to an UltiMate™ 3000 RSLC-Nano liquid chromatography system (Dionex). […]

The target in the next experiment is HLA-E*0103 (Homo sapiens, UniProt P13747). As to the kind of experiment: HLA-E*0103 peptide binding and refolding into monomer. Type of experiment: biochemical.
Experiment [2] addresses T2, HLA-E*0103 extracellular domain with beta-2-microglobulin (recombinant, before peptide loading) (human). As to the kind of experiment: in vitro refold, Superdex 75 size exclusion.
Experiment [3] concerns the target T2, HLA-E*0103 extracellular domain with …. As to the kind of experiment: peptide binding and refold into monomer complex.

GLADKVYFL: the “Peptide detected in lung PDX tissue by LC/MS/MS” value in experiment [1] is recorded as “isolated from HLA-E molecules expressed in PDX lung tumor tissue”.

On to YLLPAIVHI [RNA Helicase p68 peptide], for which the “HLA-E*0103 peptide binding, refold into stable monomer complexes” value on HLA-E*0103 is listed as “successfully refold HLA-E*0103/peptide into stable monomer complexes”.

B1: peptide GLADKVYFL (CAD protein) (peptide)
peptide: GLADKVYFL
As to B1, in experiment [2], the binding result is reported as “binds”.

B2: peptide YLLPAIVHI (RNA Helicase p68) (peptide)
peptide: YLLPAIVHI
As for B2, in experiment [3], the binding result was “binds”.

For the origin of these results see US20210147572A1, “ANTIBODIES AND METHODS OF USE THEREOF” (AbeXXa Biologics, Inc., priority 2017, published 2021).
